{"source": "the nanobody polyreactivity screen of Harvey et al. (2022)"}
{"assay": "yeast display, Sf9 membrane polyspecificity reagent, FACS + sequencing; frameworks hold sequencing errors", "outline": "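A nanobody's polyreactivity label depends on the gate it was sorted from. Yeast display cells were stained with 10% biotinylated, detergent-solubilized Sf9 membrane reagent for 1 hour at 4 °C, enriched on streptavidin microbeads and sorted by FACS. The low and high (top ~1%) gates were set on anti-HA fluorescence for expression and streptavidin fluorescence for reagent binding.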"}
{"sequence": "QVQLVESGGGLVQAGGSLRLSCAASGLTLGRYAMGWYRQAPGNERELVAVITGGGSTNYADSVKGRFTISRDNAKNTVYIQLNSLKPADTAVYYCAVRGGIFQTLSTWYRYYYCGQGTQVTVSS", "polyreactivity (PSR sort gate)": "high polyreactivity"}
{"sequence": "QVQLVESGGGLVQAGGSLRLSCAASGLTLGSYAMGWYRQAPGKERELVAAISRRSGRTYYADSVKGRFTISRDNAKNTVYLKMNSLKPEDTAVDYCNRGYTAQVYTEFDYWGQGTQVTVSS", "polyreactivity (PSR sort gate)": "low polyreactivity"}
{"sequence": "QVQLVESGGGLVQAGGSLRLSCAASGLTLHGNAMGWYSQAPGKERGLVATITSSGGSTFYADSVKGRFTISRDNAKNTVSLQMNSLKPEDTAVFYCNADAPYSDDYYVRFDYWGQGTQVTVSS", "polyreactivity (PSR sort gate)": "low polyreactivity"}
{"sequence": "QVQLVESGGGLVQAGGSLRLSCAASGLTLKTYAMGWYRQAPGKERELVAGISASGGSTYYADSVKGRFTISRDIAKNTVYLQLNSLKPVDTAVYYCAKVTRAYRAYYYWGQGTQVTVSS", "polyreactivity (PSR sort gate)": "high polyreactivity"}
{"sequence": "QVQLVESGGGLVQAGGSLRLSCAASGLTLNYYAMGWYRQAPGKERELVASISRSGGRTYYADSVKGRFTISRVNAKNTVYLQMNSLKPDDSAVYYCNADWYRGRYDYWGQGTQVTVSS", "polyreactivity (PSR sort gate)": "high polyreactivity"}
{"sequence": "QVQLVESGGGLVQAGGSLRLSCAASGLTLPSYVMGCYRQAPGKERELVAAISNSGGSTYYADSVKGRFTISRDTAKNTVYLQMNSLKPEDTAVYYCAAVYGYLLYFLLLPFTRDDYWGQGTQVTVSS", "polyreactivity (PSR sort gate)": "high polyreactivity"}
{"sequence": "QVQLVESGGGLVQAGGSLRLSCAASGLTLRNYAKGWYREAPGKDRELVAAITTGGGRTFYADSVKGRFTISRDKAKNTVYLETNSLNPEDTAVYYCAAERAILSSDKQSLWRFDYWGQGTQVTVSS", "polyreactivity (PSR sort gate)": "low polyreactivity"}
{"sequence": "QVQLVESGGGLVQAGGSLRLSCAASGLTLRNYAMGWYRQAPGKERELVAAITTGGGRTYYADSVKGRFTISRDYAKNTVFLQMKSLKPEDTAVYYCAAEGAILSSDKQSLWRFDYWGQGTQVTVSS", "polyreactivity (PSR sort gate)": "low polyreactivity"}
{"sequence": "QVQLVESGGGLVQAGGSLRLSCAASGLTLRTNSMRLYIQAPGKERELVAAISRSGVRTYYAHSVKGRFTISRDNAKNTVYLQMNSLKPEDTAVYYCNAEFSPYPYDYWGQGTQVTVSS", "polyreactivity (PSR sort gate)": "high polyreactivity"}
{"sequence": "QVQLVESGGGLVQAGGSLRLSCAASGLTLSGNAMGWYRQAPGKETELVAAITGRGGSTTYADSVKGRFTISRDNAKTTVYLQMNSLKPEDTAVYYCAADHAWYSLFDYWGQGTQVTVSS", "polyreactivity (PSR sort gate)": "low polyreactivity"}
{"sequence": "QVQLVESGGGLVQAGGSLRLSCAASGLTLSYYAMGWYRPAPGKEMELVAAISSGGSTYYADSVKGRFTISRDNAKNTVYLQMNSLKPEDTAVYYCAAQWWRLYWEYYYWGQGTQVTVSS", "polyreactivity (PSR sort gate)": "low polyreactivity"}
{"sequence": "QVQLVESGGGLVQAGGSLRLSCAASGLTLTYYAMGWYRQAPGKERELVAAISSSGGSTYYADSVKGRFTISRDNAKNTVYLQMNSLKPEDTAVYYCAARDWASHTPFDYWGQGTQVTVSS", "polyreactivity (PSR sort gate)": "high polyreactivity"}
{"sequence": "QVQLVESGGGLVQAGGSLRLSCAASGLTMTWNSMGWYRQAPGKERELVAAIRWRGSSTYYADSVKGRFTISRDNAKNTVYLQLNSLKPEDTAVYYCAAEPRYYHVGYEYDNWGQGTQVTVSS", "polyreactivity (PSR sort gate)": "high polyreactivity"}
{"sequence": "QVQLVESGGGLVQAGGSLRLSCAASGLTSIHYMGWYRQAPGKERELVATITSSTGSTYYADSVKGRFTISRDNAKNTVYLQMNSLKPEDTAVYYCAAESFGADGPYQPSYDYWGQGTQVTVSS", "polyreactivity (PSR sort gate)": "low polyreactivity"}
{"sequence": "QVQLVESGGGLVQAGGSLRLSCAASGLTSVYNAMGWYRQAPGKERELVAAISWRGGRTYYADSVKGRFTISRDNAKNTVYLQMNSLKPEDTAVYYCARGYYTRPYYNPVFGYNYWGQGTQVTVSS", "polyreactivity (PSR sort gate)": "high polyreactivity"}
{"sequence": "QVQLVESGGGLVQAGGSLRLSCAASGLTVVIYAMGWYRKAPGKERELVARITCSGGSTYYADSVKGRFTISRDNAKNTVYLQMISLQPEVTAVYYCAARRFYYYNAVYDYWGQGTQVTVSS", "polyreactivity (PSR sort gate)": "low polyreactivity"}
{"sequence": "QVQLVESGGGLVQAGGSLRLSCAASGLTYWAYAMGWYRQAPGKERDFVAAISWSGDSTYYADSVKGRYTISRDNAKNTVYLQMNSLKPEDTAVYYCAAEWYYVYIAPYDYLGQGTQVTVSS", "polyreactivity (PSR sort gate)": "low polyreactivity"}
{"sequence": "QVQLVESGGGLVQAGGSLRLSCAASGMIFTLYAMGWNRQAPGKERELVAGIDASGGSTSYADSVKGRFTISRDNAKNTVYLQMNSLKPEDTAVYYCAARILPYGYDYWGQGTQVTVSS", "polyreactivity (PSR sort gate)": "low polyreactivity"}
{"sequence": "QVQLVESGGGLVQAGGSLRLSCAASGMILGVNVMGWYRQAPGKERELVAAISGGGRTYYADSVKGRFTISRDNAKNTVYLLMNSLKPEDTAVYYCAARVYSLGYGGDYWGQGTHVTVSS", "polyreactivity (PSR sort gate)": "high polyreactivity"}
{"sequence": "QVQLVESGGGLVQAGGSLRLSCAASGNAMGWYRPAPGKERELVAAITRRGGSTYYADSVKGRFTISRDNAKNTVYLQMNSLKPEDSAVYYCAADNPSYNLWYGYWGLGTQVTVSS", "polyreactivity (PSR sort gate)": "low polyreactivity"}
{"sequence": "QVQLVESGGGLVQAGGSLRLSCAASGNIFADYAMGWYRQAPGKERELVAAISRGGITSYADSVKGRFTISRDNAKNTVYLQMNSLKPEDTAVYYCATDRYDVYDSLGFGYWGQGTQVTVSS", "polyreactivity (PSR sort gate)": "low polyreactivity"}
{"sequence": "QVQLVESGGGLVQAGGSLRLSCAASGNIFANYAMGWYRQAPGKERELVAAIRWSASRPYYADSVKGRFTISRDNAKNTVYLQMNSLKPEDTAVYYCAATIYTFWDYYYDYWGQGTQVTVSS", "polyreactivity (PSR sort gate)": "high polyreactivity"}
{"sequence": "QVQLVESGGGLVQAGGSLRLSCAASGNIFARYAMGWYRQAPGKEREMVARISESGGRTYYADSVKARFTISRDNAKNTVYLQMNSLKPEDTAVYYCADRRYIQYGFKFYYWGQGTQLTVSS", "polyreactivity (PSR sort gate)": "high polyreactivity"}
{"sequence": "QVQLVESGGGLVQAGGSLRLSCAASGNIFDSYGMGWYRQAPGKERELVATINTSSGSTYYADSVKGRFTISRDNAKNTVYIQMNSLKPEDTAVYYCAAEWYPYTWGYGYWGQGTQVTVSS", "polyreactivity (PSR sort gate)": "low polyreactivity"}
{"sequence": "QVQLVESGGGLVQAGGSLRLSCAASGNIFDYYAMGWYRQAPGKERELVAAISTGTSTYADSVKGRFTISRDNAKNTVYLQMNSLKPQDTAVYYCAADVGIRPLNYNPYNYWGQGTQVTVSS", "polyreactivity (PSR sort gate)": "low polyreactivity"}
{"sequence": "QVQLVESGGGLVQAGGSLRLSCAASGNIFFGYAMGWYRQAPGKEREYVATITKIGGSTYYADSVKGRFTISRDNAKNTVYLQMNSLKPEDTAVYYCAARLGHSVNPGGERWDVEYWGQGTQVTVSS", "polyreactivity (PSR sort gate)": "low polyreactivity"}
{"sequence": "QVQLVESGGGLVQAGGSLRLSCAASGNIFFRYTMGWYRQAPGKERELVAASSASGGSTYYADSVKGRFTISRDNAKNTVYLQMNSLKPEDTAVYYCAARILHYTSEYYYWGQGTQVTVSA", "polyreactivity (PSR sort gate)": "high polyreactivity"}
{"sequence": "QVQLVESGGGLVQAGGSLRLSCAASGNIFGAYAMGWYRQAPGKERELVATINWSGTRTYADSVKGRFTISRDNAKNTVYLQMNSLKPEDTAVYYCATKIAGRYRTRYYWGQGTQVTVSS", "polyreactivity (PSR sort gate)": "high polyreactivity"}
{"sequence": "QVQLVESGGGLVQAGGSLRLSCAASGNIFGHYTMGGYRQAPGKERELVAAISRTGGRTYYADSVKGRFTISRDNAKKTVYLQMNSLKPEDTAVYYCAADKGGTYFNGDSWGQGTQVTVSS", "polyreactivity (PSR sort gate)": "high polyreactivity"}
{"sequence": "QVQLVESGGGLVQAGGSLRLSCAASGNIFIYNAMGWYREAPGKERELVAVISNSGSTYYADSVKGRFTISRDNAKNTVYLQMHSLKPEDSAVYYCNKDGGGDSYWYDYWGQGTHVTVSS", "polyreactivity (PSR sort gate)": "low polyreactivity"}
{"sequence": "QVQLVESGGGLVQAGGSLRLSCAASGNIFKHYAMGWYRQAPGKERELVAAITWSGGSTHYADSVKGRFTISRDNAKNTVYFQMNSLKPEDTAVSYCAARGWWPGTKWTRYDYWGQGTQVTVSS", "polyreactivity (PSR sort gate)": "high polyreactivity"}
{"sequence": "QVQLVESGGGLVQAGGSLRLSCAASGNIFLFYAMGWYRQAPGKERELVATLSWRGVGTYYADSVKGRFTISRDKAKNTGYIQMNSLKPEDTAVYYCAARGVWPEYDYWGQGTQVTVSS", "polyreactivity (PSR sort gate)": "low polyreactivity"}
{"sequence": "QVQLVESGGGLVQAGGSLRLSCAASGNIFPDYAMGWYRQAPGKERELVAAISWSGGSTYYADSVKGRFTISRDNAKNTVYLQMNSLKPEETAVYYCAAGRRGRSYNRIRYDYWGQGTQVTVSS", "polyreactivity (PSR sort gate)": "high polyreactivity"}
{"sequence": "QVQLVESGGGLVQAGGSLRLSCAASGNIFPYYAMGWYRQAPGKERELVASITWSGGRTYYADSVKGRFTISRDNAKNTVYLQMNSLKPEDTAVYYCAKEHHRTGQGRDYDYWGQGTQVTVSS", "polyreactivity (PSR sort gate)": "low polyreactivity"}
{"sequence": "QVQLVESGGGLVQAGGSLRLSCAASGNIFQRYAMGWYRQAPGKERELVAAISGNGGNTFYADSVKGRFTISRDNAKNSVYLQMNSLKPEDTAVYYCNTVYVVYGYDYWGQGTQVTVSS", "polyreactivity (PSR sort gate)": "high polyreactivity"}
{"sequence": "QVQLVESGGGLVQAGGSLRLSCAASGNIFQRYAMGWYRQAPGKERELVAAISYSGARTYYADSVKGRFTISRDNAKNTVYLQMNSLKPEDTAVYYCATYGGLTKFRLAYDYWGQGTQVTVSS", "polyreactivity (PSR sort gate)": "high polyreactivity"}
{"sequence": "QVQLVESGGGLVQAGGSLRLSCAASGNIFRINGMGWYRQAPGKERELVAAISFSGGSTYYADSVKGRFTISRDNAKNTVYLQMNSLKPEDTAVYYCNADSTKGWYHDYDYWGQGTQVTVSS", "polyreactivity (PSR sort gate)": "low polyreactivity"}
{"sequence": "QVQLVESGGGLVQAGGSLRLSCAASGNIFRRYAMGWYRQAPGKDRELVAAISISGGNTYYADSVKGRFTISRDNAKNTVYLQMNSLKREDTAVYYCNARLRWYPGYDYWGQGTQVTVSS", "polyreactivity (PSR sort gate)": "high polyreactivity"}
{"sequence": "QVQLVESGGGLVQAGGSLRLSCAASGNIFRRYAMGWYRQAPGKERELVAAITWSGGSTYYADSVKGRFTISRDNAKNTVYLQMNSLKPEDTAVYYCAARRFWHYGYPGAYIGFGYWGQGTQVTVSS", "polyreactivity (PSR sort gate)": "high polyreactivity"}
{"sequence": "QVQLVESGGGLVQAGGSLRLSCAASGNIFRSYAMGWYRQAPGKERELVAAISSRGGSTYYADSVKGRFTISRDNAKNTVYLQMNSLKPEDTAVYYCNAPSTQQGPKYDYWGQGTQVTVSS", "polyreactivity (PSR sort gate)": "low polyreactivity"}
